{"source": "paper PMC11022072", "biological_target": "bovine lactoferrin (Lf) (bovine)", "test": "[…]; 20 mM HEPES pH 7.4, 150 mM NaCl", "data": [{"substance": "C-terminal α-helical domain (CaHD) of Moraxella bovis LbpB (domain or fragment)", "values": [{"measurement": "stoichiometry N", "value": 1}]}]}
